Assay: soluble on expression in E. coli; label from the status in PepcDB or PDB records
In the case of “DILLTQSPAILSVSPGERVSFSCRASQSIGTDIHWYQQRTNGSPRLLIKYASESISGIPSRFSGSGSGTDFTLSINSVESEDIANYYCQQSNRWPFTFGSGTKLEIKRADAAPTVSIFPPSSEQLTSGGASVVCFLNNFYPKDINVKWKIDGSERQNGVLNSWTDQDSKDSTYSMSSTLTLTKDEYERHNSYTCEATHKTSTSPIVKSFNRN”, the “soluble on expression in E. coli” value is reported as “soluble”.
In the case of “MVVQSDGSPEAASYTLIHFWAAYDGESRAGNVRWSRYFAKRPDSRVRYVGVSMDKNLSVFTNTLAFDQIDLSAQRLVENSKRDQMLNIYGLKIRFHSYLVDAHGIIRAVDPNPDQLETIL”, the “soluble on expression in E. coli” value is reported as “not soluble”.
In the case of “MNRSTISPVEARQQFRAGLIQPTSGWSAGFAQANLISMPQDLAYDFLLFAQRNPKPCPILEVLNAGETFGGIFGSNATEADIRTDAPQYRIYAHGELIDSPASAVDYWRDDLVSFIIGCSFTFEHPMVQAGVPVRHLEAGRNVPMYETSLACRPAGSLSGNLVVSLRMIPASQVADAVRITSRYPAVHGAPVHIGDPSLIGIDDINNPDFGDAPLSEPSDVPVFWACGVTPQAMVMSSKPPLAITHAPGHMLITDAPDLGFQVPLEHHHHHH”, the “soluble on expression in E. coli” value is reported as “not soluble”.
With “SLKDELANIPGIQFVDHVAIAVKQGDLEGQVAAYKMLGFTEVHREDVLGGDQVREVLLRIGDGPNLIQLLEPLNASSPVQKLIEKNGGRGGFAHVAFRVRNARESFDAMTAQGFHIIDKAPRKGSRGTTVFFVHPKSLDSAPFGFLIEIVEEPVEG” the “soluble on expression in E. coli” value was “soluble”.
In the case of “MPETTYKYEDNEVKKKKTIFNENGYIIEELHYDKNRKEPYSYKKRYNDKGLLVESHEHTYTYEYDKNGNLVQIKRPKNSAYGGLERTTYNKAGKIIRTQTFTQNQYDKAGVKITDDSNYLKDKNGELYQSLTDYSYIYNKDGKLQEIRDNVFSSGTIKYSYEYEDGLYVKTAELVTQKFVTYYDKAGNEVKYKWITYSLGPDKPRTQLHLVFKENKRDKYGNLIYQVANRIEELDPEKKGTDVGIYEKKIIEYEYYELEHHHHHH”, the “soluble on expression in E. coli” value is reported as “not soluble”.
For “MSKQIVILGAGYGGLLAALNVRKYYSKSEAQVTVINQYPTHQIITELHRLAAGNVSEQAVAMPLTKLFKGKDIDLKIATVESFSVDSKEIKLAGGTTLSYDALVVALGSKTAYFGIPGLEENSMVLKSAADANKIYKHVEDRIREYAKTKNEADATIVIGGGGLTGVELVGELADIMPKLAKSHGVNPKEVKLLLVEAGPKILPVLPDHLIERATTSLEARGVTFLTGLPVTNVAGNEIDLKDGQKLVANTFVWTGGVQGNPLIGESGLEVNRGRATVDAYLQSTSHKDVFVAGDSAVVFAPDGRPYPPTAQIAWQMGELIGYNLYAALEGKAFEEFAPVNSGTLASLGRKDAVATIGASNTPLKGLPASLMKEASNVRYLSHIKGLFSLAY”, the “soluble on expression in E. coli” value was “not soluble”.
For “MKPTERRILLGRIVGAFGVKGELKLESWTEPRSAIFRYQPWIVRTPSGQESVLSGVRGRDQGKNLIAVFPDITDRDTVEAMHGTEIYVARSALPPPKPDEYYWVDLEGLQVETVEGVKLGTVSHLFSTGSNDVVVVRGDRERMIPFVLPEYVKSVDFEANLIVVDWDPDFLEHHHHHH”, the “soluble on expression in E. coli” value was “soluble”.
With “MNSSSASIPRTAHAAVPTAHASRYLQQLCKHWAHKFEAEFDPIQARIALPLGEARLTARPDALLIDLTATDAANMTTFQQVVISHIERFAFREELRFVWG” the “soluble on expression in E. coli” value was “not soluble”.
In the case of “MAHHHHHHMKGVIFCLVVLLWRQAWVSSKSHKCDFTKEKYLLSGEKEVSCEIDANPSDDITFICPNKIDSLCFHTVNISKNINQNKSTMSIQDLLYGSVVYGNTLFISPYVRTNTPFYCFCNLDTVTIQKFLKINRFLKDDDELSEADVMKHLKGGNVSEAQADEYLNKALNRFKKMKDLSKFFNDQADNTTKLNLPKSLNIPNDILNYDVYNSSNNRNDIVVKDEVTNKQIISKRGIMSVFVRSNNNVIKGCDFGNNNKNYFSHPISVAGKVNNKVCKIQGKPGELVGFKCAFEENGKVEPPNCFDQVLHKNKVTDLKTLIPGYASYTNKHSSKYPYYLKIPHFVNEQYTIQCKCKSNNSQNEYTFELDIQPGESEVVLNSFKTS”, the “soluble on expression in E. coli” value is reported as “not soluble”.
With “MSLKSISLLLLSLLMITPSCQKPKEVTNEYNIVPQPNQLVPKEGRFELSNKVRLVVPSDAPEVKKVADGFAEQLKQTAGISLTEAESVDGKPAISFVLQEGMPKEGYKLSVTPTLITVTASQPNGFFYGVQTIYQLLPPAVYGKELKKKADWSVPAVEIEDAPRFVHRGLMLDVCRHYAPIEYIYKFIDLLAMNKMNVFHWHLTDDQGWRIEIKKYPKLTEIGSKREKTLVDYYYVNYPQVFDGIEHGGYYTQEQIKEVVAYAASKYINVIPEIEMPGHALAALAAYPELSCDSTQTYKVSPTWGVFEQVFCPSETTFKFFEGVMDEVVELFPSEYIHIGGDECPKTAWKNSTFCQQLIRQLGLKDDATPSKVDGVKHSKEDKLQSYFVTRMEKYLNGKGRNIIGWDEILEGGLAPNATVLSWRGVEGGLNAAKAGHNAIMAPMPYAYLDFYQEDPEIAPTTIGGYTTLKKTYSYNPVPDNADELVKKHIIGMQGNLWREYMKTSDRVDYQAFPRAMAIAETGWTLDANKNWKSFCERMVTEFERLEVMDTKPCLNFFDVNINTHADENGPLMVLLETFYPNAEIRYTTDGSEPTYGSTLYEQPFVLEGNIDLKAAAFKDGKMLGKVTNKPLYGNLLAGKEGHHHHHH” the “soluble on expression in E. coli” value was “soluble”.
With “MRFTVTSRGDDVSNTLQQKIKRYLLDFGLTLDEQEPDIVITVGGDGTLLHAFHRYTSRLEDTAFVGIHTGHLGFYADWVPDEVEKLVIHIAKTPYQIVEYPLLEVVVRHTDESESKRLLALNECTVKSQEGSLVSNVEIKGDVFEVFRGDGLCISTPSGSTAYNKALGGAILHPSLASIQISEMASINNRVYRTIGSPLVLPQHHTCLIKPLNQVELQVTIDHFTLAYKRVKSIQCRVAEEKIRFARFRPFPFWKRVKESFIGDSLEHHHHHH” the “soluble on expression in E. coli” value was “soluble”.
With “MGSDKIHHHHHHLDLAPEDYYGAGNFWKEASQPKAFMLGLHAQLRSYYDMFYTLGELRGGTQRVGTSSLNTSLNYADIRSQNISEDIPGISNWNGLYSPIMQVNHFIQEVENGCTFLDDATRSRYLGQAYGMRALYYFMLYRTFGGVPLITKVDILDGKPSADKFYVERATPEATMEFIKADINKSENYFGNNTSFDAYDWSRYATLMLKAEIYMWAAKVSITGFTATGATDLQTAKTALSGIIGHFELMDNFASIFSCDNKKNTEIIFAMPFIEGEASNDGGRFLYQDAVFLGQAYGRNGKVIEKDTLNLKGTGGVFRDEYTEDFWKTFKEGDSRRDATFMEYYMKNDNGTLSEFGCVMKKRIGTINSNDNRIYISDIPVYRYADALLMMAEIENGLNNPCASYINEVRKRAYGDTFEENKYTEGSYAENELAILQERDKEFVSEGKRWFDVLRMHDASGRSLVFSANANYPGTNPILGTEEAYKMLWPVNIGTLNVNPLLTQTPGYGKK” the “soluble on expression in E. coli” value was “not soluble”.
With “MGSDKIHHHHHHMVVIEFKNVSKHFNLYKNKSYSLKEKFLNKVLNRNKLEVEQLHVLKNASFKIGQGETIGIIGENGTGKSTSLKLVANIIRPNEGQVTVKGKISSLLEVGVGFQPDMTGRENVYLYGSIMGLSKKEIDERYDEIVEFAELENFMDTPVKNYSSGMYMRLGFSVAVTVNPDILLVDEVLAVGDANFQKKCLNKIQAFKEQGKTILFVSHDMSTVRRICDRCIFIRKGGEVIEGSTDRMVGLYMKLLYAKSEEHKKEEQKSEESLADFDFKLHEADEFKDGNREGNKKLEITKLYFSDKEGRPRNFFGTEENIKVNVEFRKNTDIKAAVMAFEIITEEGYKLIYHDCKQDGMLITEMKDTNMVSFSLQNELLLKSKYYFSIALMDENLQEIYDFRHKHYWFTIHEGNIKEDGKVKISCDWML” the “soluble on expression in E. coli” value was “not soluble”.
In the case of “DAGQANDDALRVALQFKPVADFSPYSDDAVLNLRMGAVETLVTLDEDGKPKPVLAEKWEMKDDRTAVLTLRKDVSFHDGSKLTGEVVKNALDHALSATTRPKGLGKADLKVEATGESEVTITAPEADPILVQRLTDPGAAILSKDAYAGENPDPFNHGTGPFKLVKKESDGSVSAEAFADYWNGTPETSALKVSFIEDGAARANAFRAGDFDVIKGVPVVALPELSDAHVTDVHLPRATLLHLNAEKGVFADAKLRTAVAGAIKTDAIVDKIYEGKANKTEGSLFNLDAQWAQKAKPLAGAPADATIGKGKTVRLATWDSRAELPETANLIADQLRALGFNVDITVADYASLENRLLDGSFDAVIGSRSYMIGAGDPVAFLDTDFTCDGSYNLSRLCDPEIDKKIAAAKSEKDLDTRHKD”, the “soluble on expression in E. coli” value is reported as “not soluble”.

From the DeepSol protein solubility set
